Data on three molecules can be found in patent US9663800B2, “Alkane exporter and its use” (Nanyang Technological University, priority 2012, dated 2017).

The test system of series [1] is S. cerevisiae BY4741. Nature of the series: Alkane susceptibility test in liquid culture. The class given is cell-based, Saccharomyces cerevisiae. As to the method: (§1) FIG. 2. Alkane susceptibility test for S. cerevisiae. The alkane susceptibility was tested in cells expressing ABC2/3 or with empty plasmid. (A) Alkane susceptibility test on agar plate. Serial dilutions of cells expressing ABC2/3 were spotted on agar plates with alkanes (decane, undecane) as vapour phase. Plates were incubated at 28° C. for 2 days. (B) Alkane susceptibility test in liquid culture. Overnight cell culture was diluted into induction medium (final OD600=0.4) with different alkanes (decane & undecane) concentrations. The plates were incubated for 48 hr at 28° C. The OD600 value of each sample was determined and plotted against its corresponding alkane concentration. Symbols for strains are: control sample with empty plasmid (open circle), cells expressing ABC2 (filled circle), cell expressing ABC3 (filled triangle).
Overnight culture was diluted into 5 ml induction medium in 50 ml glass bottle (Sigma) at an initial OD600 of 0.4. Alkanes were added as different final concentration. Bottles were sealed tightly with butyl rubber stopper (Sigma) and silver aluminum seal (Sigma). Liquid culture was performed at 28° C. with shaking. Growth was monitored by measuring the OD600 at different time point. Cell culture used for time point OD checking was collected from the glass bottle using needle and syringe.
To further analyze the effect of ABC2 and ABC3 toward decane and undecane, alkane susceptibility tests in liquid culture were conducted. […] With the expression of ABC2, decane tolerance was boosted about 80-fold (20% vs. 0.25% decane) and cells can survive in 20% undecane. For ABC3, decane tolerance is increased slightly by about 3-fold (0.75% vs. 0.25% decane) and cells are resistant to 20% undecane. It is apparent that the expression of ABC2 and ABC3 transporters improved the tolerance toward C10 and C11 alkanes.

The subject of series [2] is ABC2 mRNA. Put plainly: Quantitative RT-PCR of ABC2 transcripts after alkane treatment. The class given is cell-based. The note with it: Y. lipolytica CLIB122, 24 h alkane treated vs. untreated, normalized to actin, p<0.05. The source says:
(§2) FIG. 3. mRNA transcripts levels of ABC2 and ABC3 in Y. lipolytica. Quantitative RT-PCR analysis of ABC2 (A) and ABC3 (B) in Y. lipolytica cells corresponding to treatment with octane, nonane, decane, undecane and dodecane (C8-C12). Each value of qRT-PCR was normalized to β-actin expression levels and expressed as the fold change relative to the levels detected in control samples, which were cells without alkane treatment and set equal to 1. Error bars represent the SD of triplicate.
(§3) To assess whether ABC1, ABC2, ABC3 and ABC4 are involved in alkane transport in Y. lipolytica, we analysed the effects of alkanes with different chain length (C8-C12) on the transcription levels of these four ABC transporter genes using quantitative RT-PCR.
(§4) Total RNA samples from 24 h alkane treated and untreated Y. lipolytica CLIB122 cells were prepared using RNeasy Mini Kit (Qiagen), followed by cDNA synthesis using H minus Reverse transcriptase kit (Fermentas). Quantitative RT-PCR analysis was performed on a Bio-Rad iQ5 real-time PCR detection system using SsoFast EvaGreen Supermix kit (Bio-Rad). The actin gene (YALI0D08272g) was used as reference gene for Y. lipolytica. Relative mRNA levels were derived using comparative CT method.

Series [3] deals with ABC3 mRNA. Nature of the series: Quantitative RT-PCR of ABC3 transcripts after alkane treatment. The class given is cell-based. The note with it: Y. lipolytica CLIB122, 24 h alkane treated vs. untreated, normalized to actin, p<0.05.
From the text: as §2, §3, §4

Series [4] concerns S. cerevisiae BY4741. Put plainly: Intracellular alkane accumulation (GC-FID) in cells expressing ABC2/3. The format is cell-based, Saccharomyces cerevisiae. The note with it: S. cerevisiae BY4741 expressing the transporter, 48 h, control with empty plasmid. On the procedure:
FIG. 1. Intracellular alkane accumulation by ABC2 and ABC3. S. cerevisiae BY4741 with and without ABC2/3 were cultured under exposure of 0.5% alkane or 20% undecane. After 48 h incubation, intracellular alkane levels were measured. Intracellular alkane levels were normalized to that of control carrying empty plasmid. Data shown are the mean±SD of four biological replicates.
Intracellular alkane accumulation was analysed with GC-FID after 48 h incubation with 0.5% decane or 20% undecane.
After induction for 48 h with or without addition of alkanes, S. cerevisiae cells transformed with pYES2, pYES2ABC2 and pYES2ABC3 were harvested at 6000 g for 5 min at 4° C. After washing with 50 mM Tris.Cl, cells were equally divided into two parts, one part for alkane GC analysis and the other for determination of total protein concentration. For GC analysis, cell pellets were re-suspended in freshly prepared Chloroform/Methanol (v/v, 2:1). Dodecane was added into cell suspension as an internal standard. Acid-washed glass beads were added until the suspension was covered. Cells were then lysed by mechanical agitation using FastPrep-24 (MPBio) for 6 min at 6 m/s. The crude extract was obtained by pipette. After addition of autoclaved ddH2O, the crude extract was emulsified for 10 min by inversion. After centrifuge, the crude extract was separated into two phases. The bottom phase containing alkane was transferred into a new 1.5 ml microcentrifuge tube and purified as above with HPLC grade chloroform and autoclaved ddH2O until particulate matter was no longer observable. The purified solution was transferred into a clear GC vial for GC analysis. To check the total protein concentration, Cell pellets were re-suspended into 50 mM Tris.Cl and lysed via mechanical agitation with acid-washed glass beads using FastPrep-24 for 6 min at 6 m/s. Protein concentration of obtained crude extract was determined using the Bradford protein assay (Bio-Rad). Intracellular alkane levels were normalized to internal standard and cell lysate protein content.

Series [5] relates to S. cerevisiae BY4741. Put plainly: Alkane susceptibility test on agar plate. The class given is cell-based, Saccharomyces cerevisiae. The note with it: cells expressing the transporter, 28° C., 2 days. On the procedure: as §1
Alkane susceptibility test on plates was performed according to the methods of Mauersberger et al.. Exponentially growing cells in induction medium were centrifuged and re-suspended with induction medium at OD600=1. Ten microliter aliquots of successive 10-fold dilutions (non diluted, 10-1, 10-2, 10-3) of cells were spotted onto the induction medium plate. Medium chain alkanes were supplied as vapour phase by placing 200 μl alkane on a sterile filter paper in the lid of the petri dish. Plates were incubated at 28° C. for 2 days.
Toxicity test was implemented to study the effect of ABC2 and ABC3 on the tolerance of the cells toward alkanes. The toxic effects of alkanes on S. cerevisiae with ABC2 and ABC3 were measured through alkane susceptibility test on agar plates. […] It was observed that the expression of ABC2 would lead higher tolerance toward decane than ABC3.

For `CCCCCCCCCC` [decane], the “alkane concentration causing a significant decrease in viability of the control cells” value in series [1] (control cells with empty plasmid, 48 hr, 28° C.) was 0.5%. Besides, the “mRNA levels of ABC2” value in series [2] is “significantly increased”. For the same molecule, the “mRNA levels of ABC3” value in series [3] was “significantly increased”.

For the molecule `CCCCCCCCC` [nonane], in series [2], the “mRNA levels of ABC2” value is reported as “significantly increased”. For the same molecule, in series [3], the “mRNA levels of ABC3” value is “significantly increased”.

B1: ABC3: Y. lipolytica ABC transporter, SEQ ID NO. 5, GenBank CAG82646, heterologously expressed in S. cerevisiae (protein, listed as Yarrowia lipolytica)
chain: MTDPVPITQDPTIYSSQQDAEIRSLAESIHSQHSNNSNNSTELTNPYVDTSDPELDPWSGQFNSRKWSRTILGLKRRYGTSKEITAGVSFKNLGAYGYGGGADYQKTVANAVLGLEGVVRTLFHLEKKEDKVQILSDFNGVLWPGETCVVLGRPGSGCTTLLKSIACETYGFQLDKETEWNYQGIPRKIMQKTCRGEIVYNAEVDVHFPHLTVGDTLMFASLARTPQNRFDGVTREQYAKHTRDVTMASLGLSHTLDTKVGNDFVRGVSGGERKRVSIAESIVCGSPLQCWDNSTRGLDAATATEFLRWLRHSAELTGASMFVSLYQASQEAYELFDKVTVLYEGQQIYFGPGEQAKQYFEEMGFECPHRQTTGDFLTSITSPAERIVAPGFEGKTPRTASEFAERWRQSQAYANLQEEIERFNTEFPVGGNRVADIMELKQEKQSDHIKVSSPYTISIPMQVKLCLTRGFQRLRGDLSMALTTVLGNFVVALILSSMFYNMPEDTSSFFSRGALLFFAMLMNAMSSVLEIIVLYELRPIVEKHQRYAMYHPFCEALASIICDFPTKFLTMLCVNVTLYFMSNLRREAGPFFIFFLFTLLCVLAMSMIFRTIAAVTKTLQQALAPAAVIILALIIYTGFTLPISYMRGWARWINYIDPIAYGFEAVMVNEFRNREFPCALFIPQQSTYDQLGSPYQGCMAVGAKPGERFVNGDRYLEMAFDYSQAHLWRNLGIMFGFILFFAFTYLTAVEFIQSAKSKGEVLVFLRSSLKQRKKRAHLMDVEANAEKVGAAQDREILVQQEEGQQEETSSCTPSDSTPKDIFQWKDVCYDIKVKGGEKRLLDNVDGWVKPGTLTALMGCSGAGKTTLLDVLADRKATGVITGDMRVNGQKRDASFQRKTGYVQQQDLHTATSTVREALEFSALLRQPSNVPKAEKIAYVDEVIDILEMQAYADAVVGVPGEGLNVEQRKRLTIGVELAAKPELLLFLDEPTSGLDSQTAWSIICLLKKLANRGQAILCTIHQPSAILFQEFDRLLFMTLGGKTVYYGDIGANSSALINYFESKGADPCPEEANPAEWMLAAIGAAPGSIAKHDWAVVWNESEERARERDLLDKMAEELAAQSTHDEKNELVTSKSVGSSQTSSSSYSAKSQYATSQATQLYYLTKRLWTYYWRSPRYIWSKLLMSIASALFIGFSYYKASQDIQGLQNQMFAFFMLFLIFVIIMVQILPHFVAQRELYEARERSSMAYSWQAFMGSNILVELPWQTLVAVLVFFCFYYPIGLQNNATGHLGERGALFFLLLWSFYVYNSTFAHMMGAAFENKENAATIGYLLFALCLIFCGVLATKEDMPHFWIFMYRVSPLTYLISGLLSAGVGETRVECTDNELVLFKPMNGTNCGKYMHPFMEGLGHTDMPMGYLVDPSATDMCGYCPISNTNGYLDQIDVKYSQRWRNYGILFAYPAFNVFMAFAFYYIFRVPKKSRKQKA
As to B1, the “lower intracellular decane level relative to the control” value in series [4] (0.5% decane) is on record as ~5 fold. Moreover, in series [4] (20% undecane), the “reduction of intracellular undecane level compared to the control sample” value is reported as “approximately 30 fold”. For the same molecule, the decane tolerance increase entry in series [1] (cells expressing the transporter vs. control (0.25% decane), 48 hr, 28° C., OD600) is listed as “about 3 fold”. The “survival in 20% undecane” value in series [1] (cells expressing the transporter, 20% undecane) is “resistant”. In addition, in series [1] (cells expressing the transporter, 48 hr, 28° C., control 0.25% decane), the decane concentration tolerated is 0.75%. For the same molecule, the “cell tolerance toward decane” value in series [5] (decane as vapour phase) is given as “considerably improved”. Besides, the “cell tolerance toward undecane” value in series [5] (undecane as vapour phase) is on record as “considerably improved”.
